Assay results reported in patent US20200317802A1 (Merck KGaA, published 2020).

T1: recombinant human ADAMTS5 (R&D Systems cat #2198-AD) (human, UniProt Q9UNA0 262-622, limits assumed)
T1 sequence: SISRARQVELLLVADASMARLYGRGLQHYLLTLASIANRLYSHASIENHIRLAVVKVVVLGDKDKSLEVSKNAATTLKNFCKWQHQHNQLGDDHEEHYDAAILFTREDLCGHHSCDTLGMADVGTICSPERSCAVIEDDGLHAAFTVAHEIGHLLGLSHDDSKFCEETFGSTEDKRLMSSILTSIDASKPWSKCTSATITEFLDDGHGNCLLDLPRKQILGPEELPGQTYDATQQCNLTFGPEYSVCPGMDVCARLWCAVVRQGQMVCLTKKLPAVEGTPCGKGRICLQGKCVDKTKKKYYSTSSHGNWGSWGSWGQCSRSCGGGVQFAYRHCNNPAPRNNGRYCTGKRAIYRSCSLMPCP


Legend:
[1] = biological target: T1, recombinant human ADAMTS5 (R&D Systems …); assay: cell-based or functional assay
[2] = biological target: T1, recombinant human ADAMTS5 (R&D Systems …); assay: cell-based or functional assay; remark: listed apart in the source
[3] = biological target: T1, recombinant human ADAMTS5 (R&D Systems …); assay: binding ELISA, periplasmic extract on coated human ADAMTS5
Procedure: In a first step, periplasmic extracts were tested for binding to recombinant human ADAMTS5 by binding ELISA. In brief, recombinant human ADAMTS5 (R&D Systems, Minneapolis, US; cat #2198-AD) at a concentration of 1 μg/ml was coated on 384-well MaxiSorp plates (Nunc, Wiesbaden, Germany). Wells were blocked with a casein solution (1%). After addition of a 10-fold dilution of the periplasmic extracts, Nanobody binding was detected using a mouse anti-Flag-HRP conjugate (Sigma, St. Louis, US) and a subsequent enzymatic reaction in the presence of the substrate esTMB (3,3′,5,5′-tetramentylbenzidine) (SDT, Brussels, Belgium). Clones showing ELISA signals higher than the sum of the average signal of the irrelevant Nanobody controls and 3 times the standard deviation of the irrelevant Nanobody controls were considered to encode positive human ADAMTS5 binding Nanobodies.

| Binder | FRET assay % inh, periplasmic extract [1] [%] | FRET assay vi (U/min), periplasmic extract [1] [U/min] | Human AlphaLISA % inhibition [2] [%] | Human AlphaLISA IC50 [2] [nM] | binding ELISA (OD 450 nm) [3] [OD 450 nm] |
| --- | --- | --- | --- | --- | --- |
| Nanobody 2D12 (VHH, tagged as tested (anti-Flag detection, IMAC); also called 02D12) VHH: EVQLVESGGGLVQAGDSLRLSCAASGRTFSTYFVGWFRQAPGKERDFVAAISRNGARTYYYDSVAGLFTISRDNAKNTVYLQMSSLKPEDTAVYYCAAARISPSDPSNEDGYDYWGQGTLVTVSS | 90 | 2 | 100 | 0.69 | 1.35 |
| Nanobody 3F04 (VHH, tagged as tested (anti-Flag detection, IMAC); also called 03F04) VHH: EVQLVESGGGSVQAGGSLRLSCVASGRYPMAWFRQAPGKEREFVAGVSWGGDRTYYADSVQGRFTVSRDYAKNTLYLQMNSLKPEDAAVYYCAGDPWGRLFRVKDNYSDWGQGTLVTVSS | 8 | 19 | – | – | 2.56 |
| Nanobody 3B03 (VHH, tagged as tested (anti-Flag detection, IMAC); also called 03B03) VHH: EVQLVESGGDLVQPGGSLRLSCAASGSDVVVNDMGWYRQAPGKQRELVADITTGGRTNYADSVKGRFTISRDNVKNTVYLQMNSLKPEDTAVYYCNAQVGDSDDDVWYAYWGQGTLVTVSS | 93 | 2 | 100 | 12 | 2.29 |
| Nanobody 2C10 (VHH, tagged as tested (anti-Flag detection, IMAC); also called 02C10) VHH: EVQLVESGGGLVQAGGSLRLSCATSGFTFSPYYMGWFRQAPGKERDFVAAITRSRGTTYYLDSTEGRFTISRDNAKNTMYLQMNSLNPEDTAVYYCAAGRSPGDPSRTYLYEYWGQGTLVTVSS | 90 | 2 | 100 | 0.45 | 1.63 |
| Nanobody 3D02 (VHH, tagged as tested (anti-Flag detection, IMAC); also called 03D02) VHH: EVQLVESGGGLVQAGASLRLSCATSGFTFSPYYMGWFRQAPGKERDFVAAISWSRGILYYTDSTEGRFTISRDNAKNTMYLQMDNLNPEDTAVYYCAASRSPGDPSRTYLYDYWGQGTLVTVSS | 111 | -2 | 100 | 0.22 | 2.58 |
| Nanobody 2G01 (VHH, tagged as tested (anti-Flag detection, IMAC); also called 02G01) VHH: EVQLVESGGGLVQAGGSLRLSCAASGRTTFSSYAMGWFRQAPGKERAFVATIWSGGLTVYADSAKGRFTISRDNAKNTVYLQMNSLRPEDTAVYYCAAEAVGTYYTPDGWTYWGQGTLVTVSS | 55 | 10 | – | – | 1.71 |
| Nanobody 2A02 (VHH, tagged as tested (anti-Flag detection, IMAC); also called 02A02) VHH: EVQLVESGGGLVQPGGSLRLSCAASRRTFSSYVMAWFRQAPGKEREFVAAISRSGDSTYYYDSLEGRFTISRDNAKNTVHLQMNSLKPEDTAVYICAASRAPSFRTIDAINYYDYWGQGTLVTVSS | 91 | 2 | 99 | 4.3 | 1.65 |

The remaining lines, values ahead:

| FRET assay % inh, periplasmic extract [1] [%] | FRET assay vi (U/min), periplasmic extract [1] [U/min] | Human AlphaLISA % inhibition [2] [%] | Human AlphaLISA IC50 [2] [nM] | binding ELISA (OD 450 nm) [3] [OD 450 nm] | Binder |
| --- | --- | --- | --- | --- | --- |
| 99 | 0 | 100 | 2.2 | – | Nanobody 13E02 (VHH) VHH: EVQLVESGGGLVQAGGSLRLSCVASGSIFSIDAMGWYRQAPGKERELVASVTTGASPNYGDSVTGRFTASRDRAKNALYLQMNSLKPEDTAVYYCNLIMTIPGGSQIMYWGQGTLVTVSS |
| 90 | 2 | 100 | 3.6 | 0.368 | Nanobody 7B11 (VHH, tagged as tested (anti-Flag detection, IMAC); also called 07B11) VHH: EVQLVESGGGLVQPGGSLRLSCAASGSIFSINVMGWYRQAPGKQRELVAAIISGGRTNYADSVKGRFTISRDNSKNTVYLQMNSLRPEDTAVYYCNAEVDAGIYAYGYWGQGTLVTVSS |
| 113 | -3 | 100 | 0.32 | – | Nanobody 9A05 (VHH) VHH: EVQLVESGGGFVQAGGSLRLSCAASRRTISSGTMGWFRQAPGKEREFVAAIRWSSGITFYPDSVEGRFTISGDNAKNTVSLQMNSLKPEDTAVYYCAADRSALRDPSFEVNYEYWGRGTLVTVSS |
| 102 | 0 | 100 | 2.6 | – | Nanobody 9D09 (VHH) VHH: EVQLVESGGGLVQAGGSLRLSCAASGLTFSSYTMGWFRQAPGQEREFVSAISWNTFTTYYVDSVKDRFTVSRDNAKNTLYLRMNSLKPEDTAVYYCAAAGGSPRQHEPYEYRVWGQGTLVTVSS |
| 111 | -2 | 100 | 0.97 | – | Nanobody 9D10 (VHH) VHH: EVQLVESGGGLVQAGGSLRLSCAASGRALSSSIMGWFRQAPGKEREFVAAITWSGGRAYYADVSDFEKGRFTISRDNGKNTVNLQMKGLKPEDTAVYYCAAALAIPVTMSPHEYPYWGQGTLVTVSS |
